Experimental findings from patent US20210032352A1 (ANTERA THERAPEUTICS, published 2021) are described below.

One assay deals with FcRn (UniProt P55899 24-297; P61769 21-119). Nature of the assay: steady-state BLI at pH 6.0, FcRn immobilised, serial dilutions (0.1-225 nM) of the FLAg in solution.
Assay [1] addresses T1, FZD1 CRD, Fc-tagged (human, UniProt Q9UP38 70-250).
T1 construct: domain: CRD; Bought; not shown: Fc tag of the purchased fusion
The experiment in a line: kinetic table (called BLI in paragraph 35); quantity name and unit not printed in the table: KD in M follows from FIG. 12A, same values in nM.

Assay [2] concerns the target T2, FZD7 CRD, Fc-tagged (human, UniProt O75084 33-185). The description is as above.
Assay [3] deals with T3, FZD2 CRD, Fc-tagged (human, UniProt Q14332 24-190).
T3 construct: domain: CRD; Bought; not shown: Fc tag of the purchased fusion
The description is as above.

Assay [4] deals with T1, FZD1 CRD, Fc-tagged. The experiment in a line: kinetic table (called BLI in paragraph 170).
Assay [5] concerns the target T2, FZD7 CRD, Fc-tagged. Nature of the assay: kinetic table (called BLI in paragraph 170).
For assay [6], the target named is T3, FZD2 CRD, Fc-tagged. The experiment in a line: kinetic table (called BLI in paragraph 170).
In the next assay the target is T4, CD64 (UniProt P12314 16-288).
T4 construct: also called monocyte and macrophage marker CD64
The experiment in a line: BLI end point: IgG1, FLAg or Fab immobilised on the sensor, receptor in solution (300 nM; CD64 50 nM), signal normalised to the isotype control.

For another assay, the target named is T5, C1q (UniProt P02745 23-245; P02746 28-253; P02747 29-245).
T5 construct: also called complement (C1q); Clq
The description is as above.

The target of assay [7] is LRP6 on HEK293/HEK293T reporter cells (UniProt O75581 20-1613, limits assumed). Nature of the assay: cell-based or functional assay.
The next assay addresses T6, FZD6 ECD, Fc-tagged (human, UniProt O60353 19-132).
T6 construct: range 19-132; Made in Expi293 cells; single protomer species purified by size exclusion; not shown: human IgG1 Fc of the pFUSE-hIgG1-Fc2 vector (Invivogen)
T6 sequence (looked up): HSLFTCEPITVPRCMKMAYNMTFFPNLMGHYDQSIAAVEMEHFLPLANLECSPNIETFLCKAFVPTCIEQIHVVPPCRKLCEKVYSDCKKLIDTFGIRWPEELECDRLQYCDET
The experiment in a line: kinetic table (called BLI in paragraph 35).

In the next assay the target is T7, FZD9 CRD, Fc-tagged (human, UniProt O00144 23-187).
T7 construct: domain: CRD; Bought; not shown: Fc tag of the purchased fusion
T7 sequence (looked up): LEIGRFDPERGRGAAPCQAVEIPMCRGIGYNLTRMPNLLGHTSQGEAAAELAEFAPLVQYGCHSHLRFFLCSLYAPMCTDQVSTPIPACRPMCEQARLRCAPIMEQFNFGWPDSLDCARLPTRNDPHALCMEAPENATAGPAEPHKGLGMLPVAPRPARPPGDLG
The experiment in a line: kinetic table (called BLI in paragraph 35).

For the next assay, the target named is T8, FZD10 CRD, Fc-tagged (human, UniProt Q9ULW2 21-161).
T8 construct: domain: CRD; Bought; not shown: Fc tag of the purchased fusion
T8 sequence (looked up): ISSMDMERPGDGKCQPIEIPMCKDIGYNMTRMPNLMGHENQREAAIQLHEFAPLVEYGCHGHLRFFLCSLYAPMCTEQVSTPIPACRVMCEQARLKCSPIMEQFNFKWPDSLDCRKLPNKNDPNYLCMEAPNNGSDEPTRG
The experiment in a line: kinetic table (called BLI in paragraph 35).

T1 sequence (Q9UP38 70-250): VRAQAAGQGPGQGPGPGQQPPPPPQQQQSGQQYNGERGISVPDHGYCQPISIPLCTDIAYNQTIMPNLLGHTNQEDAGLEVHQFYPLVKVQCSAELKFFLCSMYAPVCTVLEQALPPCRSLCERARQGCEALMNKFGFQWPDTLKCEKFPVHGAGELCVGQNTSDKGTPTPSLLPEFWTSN
FcRn, sequence (P55899 24-297 limits assumed, chain 1 of 2): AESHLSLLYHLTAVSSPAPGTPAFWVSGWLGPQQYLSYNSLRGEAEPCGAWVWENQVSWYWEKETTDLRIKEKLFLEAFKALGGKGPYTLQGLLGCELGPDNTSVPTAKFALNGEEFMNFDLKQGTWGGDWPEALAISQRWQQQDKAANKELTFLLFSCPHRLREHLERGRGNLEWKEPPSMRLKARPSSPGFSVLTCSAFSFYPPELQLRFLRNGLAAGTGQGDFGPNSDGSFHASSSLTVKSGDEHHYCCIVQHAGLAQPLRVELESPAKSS
FcRn, sequence (P61769 21-119 limits assumed, chain 2 of 2): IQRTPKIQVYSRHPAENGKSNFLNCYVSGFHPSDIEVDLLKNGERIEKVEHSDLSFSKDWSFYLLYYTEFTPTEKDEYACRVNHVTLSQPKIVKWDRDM
T4 sequence (P12314 16-288 limits assumed): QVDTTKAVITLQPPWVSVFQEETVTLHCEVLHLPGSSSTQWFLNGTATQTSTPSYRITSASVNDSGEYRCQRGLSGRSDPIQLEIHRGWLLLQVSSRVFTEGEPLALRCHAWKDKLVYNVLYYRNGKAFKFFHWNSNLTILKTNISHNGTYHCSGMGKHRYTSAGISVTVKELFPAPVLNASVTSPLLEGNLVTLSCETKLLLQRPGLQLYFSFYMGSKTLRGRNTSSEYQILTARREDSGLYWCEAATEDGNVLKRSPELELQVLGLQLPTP
T5 sequence (P02745 23-245 limits assumed, chain 1 of 3): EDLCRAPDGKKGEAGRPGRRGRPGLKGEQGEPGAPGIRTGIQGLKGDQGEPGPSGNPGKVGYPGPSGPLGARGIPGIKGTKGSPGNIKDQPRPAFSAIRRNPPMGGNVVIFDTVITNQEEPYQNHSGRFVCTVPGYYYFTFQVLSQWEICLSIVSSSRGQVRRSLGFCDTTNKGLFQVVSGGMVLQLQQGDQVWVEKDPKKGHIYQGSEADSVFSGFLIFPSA
T5 sequence (P02746 28-253 limits assumed, chain 2 of 3): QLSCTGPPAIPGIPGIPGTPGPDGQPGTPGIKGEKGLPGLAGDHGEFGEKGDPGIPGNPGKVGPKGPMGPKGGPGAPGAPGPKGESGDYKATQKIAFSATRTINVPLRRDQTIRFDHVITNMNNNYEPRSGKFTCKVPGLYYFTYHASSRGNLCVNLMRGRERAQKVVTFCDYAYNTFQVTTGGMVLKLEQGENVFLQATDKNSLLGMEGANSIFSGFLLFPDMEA
T5 sequence (P02747 29-245 limits assumed, chain 3 of 3): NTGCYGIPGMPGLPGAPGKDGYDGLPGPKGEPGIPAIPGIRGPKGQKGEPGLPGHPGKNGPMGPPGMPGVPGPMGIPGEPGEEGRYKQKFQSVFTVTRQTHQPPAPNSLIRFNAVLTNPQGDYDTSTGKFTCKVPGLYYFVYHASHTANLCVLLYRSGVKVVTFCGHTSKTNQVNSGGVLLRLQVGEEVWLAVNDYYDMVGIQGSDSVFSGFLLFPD
Description for C1q: (§1) Coated sensors were equilibrated in assay buffer (PBS, 1% BSA, 0.05% Tween20) and transferred into Fc receptor solutions. Association was monitored for 600 seconds, the sensors were transferred to assay buffer, and dissociation was monitored for 600 seconds. CD64 and all other Fc receptors were assayed at 50 nM or 300 nM, respectively, at pH 7.4, unless as indicated. Shake speed was 1000 rpm and temperature was 25° C. End-point response values were taken at the end of the association phase and were normalized to isotype controls. […] The association and disassociation times were 600 or 1200 seconds, respectively.
Description for FcRn: as §1

B1: F^P+P-L6^1+3 (5019-K/H-2539-2542) (bispecific antibody)
chain 1: EVQLVESGGGLVQPGGSLRLSCAASGFNIGSSSIHWVRQAPGKGLEWVASIYSAFASTSYADSVKGRFTISADTSKNTAYLQMNSLRAEDTAVYYCARYHFPFGFALDYWGQGTLVTVSSGGGGSDIQMTQSPSSLSASVGDRVTITCRASQSVSSAVAWYQQKPGKAPKLLIYSASSLYSGVPSRFSGSRSGTDFTLTISSLQPEDFATYYCQQGVYLFTFGQGTKVEIKLEDKTHTKVEPKTSDKTHTCPPCPAPELLGGPSVFLFPPKPKDTLMISRTPEVTCVVVDVSHEDPEVKFNWYVDGVEVHNAKTKPREEQYNSTYRVVSVLTVLHQDWLNGKEYKCKVSNKALPAPIEKTISKAKGQPREPMVFDLPPSREEMTKNQVSLWCMVKGFYPSDIAVEWESNGQPENNYKTTPPVLDSDGSFFLYSKLTVDKSRWQQGNVFSCSVMHEALHNHYTQKSLSLSPGKSGSETPGTSESATPESGGGEVQLVESGGGLVQPGGSLRLSCAASGFNISYSSIHWVRQAPGKGLEWVAYISSYYGYTYYADSVKGRFTISADTSKNTAYLQMNSLRAEDTAVYYCARAHYFPWAGAMDYWGQGTLVTVSSGGGGSDIQMTQSPSSLSASVGDRVTITCRASQSVSSAVAWYQQKPGKAPKLLIYSASSLYSGVPSRFSGSRSGTDFTLTISSLQPEDFATYYCQQYYWPITFGQGTKVEIK
chain 2: EVQLVESGGGLVQPGGSLRLSCAASGFNIGSSSIHWVRQAPGKGLEWVASIYSAFASTSYADSVKGRFTISADTSKNTAYLQMNSLRAEDTAVYYCARYHFPFGFALDYWGQGTLVTVSSGGGGSDIQMTQSPSSLSASVGDRVTITCRASQSVSSAVAWYQQKPGKAPKLLIYSASSLYSGVPSRFSGSRSGTDFTLTISSLQPEDFATYYCQQGVYLFTFGQGTKVEIKLEDKTHTKVEPKSSDKTHNCPPCPAPELLGGPSVFLFPPKPKDTLMISRTPEVTCVVVDVSHEDPEVKFNWYVDGVEVHNAKTKPREEQYNSTYRVVSVLTVLHQDWLNGKEYKCKVSNKALPAPIEKTISKAKGQPREPQVYTLPPIRELMTSNQVSLSCAVKGFYPSDIAVEWESNGQPENNYKTTPPVLDSDGSFFLVSKLTVDKSRWQQGNVFSCSVMHEALHNHYTQKSLSLSPGKSGSETPGTSESATPESGGGEVQLVESGGGLVQPGGSLRLSCAASGFNISSYYIHWVRQAPGKGLEWVASIYSSYGYTSYADSVKGRFTISADTSKNTAYLQMNSLRAEDTAVYYCARTVRGSKKPYFSGWAMDYWGQGTLVTVSSGGGGSDIQMTQSPSSLSASVGDRVTITCRASQSVSSAVAWYQQKPGKAPKLLIYSASSLYSGVPSRFSGSRSGTDFTLTISSLQPEDFATYYCQQYSWGPFTFGQGTKVEIK
Consider B1, for which the “EC50 (read off the curve)” value in the assay with FcRn is around 10 nM. The Kd was below 0.01 nM with FZD1 CRD, Fc-tagged [1]; 0.057 nM with FZD7 CRD, Fc-tagged [2]; 0.039 nM in the assay with FZD2 CRD, Fc-tagged [3]; below 0.01 nM with FZD1 CRD, Fc-tagged [4]; 0.06 nM with FZD7 CRD, Fc-tagged [5]; 0.04 nM with FZD2 CRD, Fc-tagged [6]. The binding result with CD64 is “binds”; in the assay with C1q, “binds”; with FZD6 ECD, Fc-tagged, “no binding”; in the assay with FZD9 CRD, Fc-tagged it was “no binding”; in the assay with FZD10 CRD, Fc-tagged, “no binding”. For the same molecule, the “EC50 of activation of a LEF/TCF reporter gene in HEK293T cells” value in [7] is around 5 nM. Moreover, the “ß-catenin luciferase reporter assay in HEK293 cells, activation over background” value in assay [7] was around 400 fold over background.
